In patent US20200062828A1 (PANASONIC INTELLECTUAL PROPERTY MANAGEMENT, published 2020):

T1: noro antigen (recombinant of the p-domain protein of the GII/4 norovirus (NSW-2012)) (GII/4 norovirus (NSW-2012), UniProt P54635 1-539)
T1 construct: Viral capsid protein antigen; also called antigen of the norovirus; recombinant p-domain protein
T1 chain: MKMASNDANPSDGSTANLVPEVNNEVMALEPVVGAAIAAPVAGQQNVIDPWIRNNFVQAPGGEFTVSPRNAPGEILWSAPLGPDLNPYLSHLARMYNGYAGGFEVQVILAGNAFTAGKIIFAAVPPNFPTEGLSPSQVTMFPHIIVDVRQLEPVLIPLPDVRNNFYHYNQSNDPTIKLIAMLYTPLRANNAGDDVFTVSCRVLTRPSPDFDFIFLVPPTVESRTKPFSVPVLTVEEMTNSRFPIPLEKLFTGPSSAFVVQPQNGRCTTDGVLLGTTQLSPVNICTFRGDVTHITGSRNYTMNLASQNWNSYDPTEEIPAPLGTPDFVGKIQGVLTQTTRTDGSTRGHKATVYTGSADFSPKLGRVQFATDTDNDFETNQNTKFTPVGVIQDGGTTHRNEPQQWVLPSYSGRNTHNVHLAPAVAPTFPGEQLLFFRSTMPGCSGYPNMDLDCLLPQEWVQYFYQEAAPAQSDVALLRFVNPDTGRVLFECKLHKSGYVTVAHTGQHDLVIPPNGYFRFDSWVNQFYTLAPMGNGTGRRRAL

T2: VLP noro antigen derived from the norovirus GII/4, composed by associating 90 dimers of VP1 each including … (norovirus GII/4, UniProt P54635 1-539)
T2 construct: Virus-like particle; also called solid phase VLP
T2 chain: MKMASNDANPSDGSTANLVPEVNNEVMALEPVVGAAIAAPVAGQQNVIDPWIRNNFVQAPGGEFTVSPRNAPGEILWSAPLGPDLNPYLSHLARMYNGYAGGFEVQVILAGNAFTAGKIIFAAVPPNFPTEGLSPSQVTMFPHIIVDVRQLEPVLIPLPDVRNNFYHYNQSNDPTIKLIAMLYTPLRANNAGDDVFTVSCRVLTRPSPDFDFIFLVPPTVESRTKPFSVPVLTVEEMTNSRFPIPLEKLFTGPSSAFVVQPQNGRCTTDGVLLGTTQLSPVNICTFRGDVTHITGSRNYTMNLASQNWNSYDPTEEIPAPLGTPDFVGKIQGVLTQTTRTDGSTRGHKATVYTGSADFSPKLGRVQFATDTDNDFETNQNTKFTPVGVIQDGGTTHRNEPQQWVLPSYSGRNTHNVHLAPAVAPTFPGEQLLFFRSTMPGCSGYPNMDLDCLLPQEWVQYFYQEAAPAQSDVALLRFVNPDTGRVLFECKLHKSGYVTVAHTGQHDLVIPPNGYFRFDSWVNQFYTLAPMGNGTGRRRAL


Assays:
[1] = molecular target: T1, noro antigen (recombinant of the …); assay: SPR (T200, CM5), noro antigen immobilized, VHH as analyte, separate concentrations
[2] = molecular target: T1, noro antigen (recombinant of the …); assay: SPR (T200), VHH immobilized, noro antigen as analyte added serially
[3] = molecular target: T2, VLP noro antigen derived from the …; assay: SPR (T200, CM3), VLP noro antigen immobilized, antibody as analyte
[4] = molecular target: T1, noro antigen (recombinant of the …); assay: SPR (T200, CM5), noro antigen immobilized, VHH as analyte added serially

Binder | Kd [1] [nM] | Kd [2] [nM] | Kd [3] [nM] | koff [3] [s⁻¹] | kon [3] [M⁻¹ s⁻¹] | Kd [4] [nM]
VHH antibody including the amino acid sequence represented by SEQ ID NO: 41 (VHH, also called anti-noro antibody; not shown: C-terminal 3xFlag tag and His tag from the modified pET22b(+) vector) VHH: EVQLVESGGGLVQAGGSLRLSCAVSGRTSSRYVMGWVRQAPGKEREFLAAISWSAGYTFYRDSVKGRFTISRDNAKNTVYLQMNSLKPEDTAVYYCNADENGLGRKRGFGSWGQGTQVTVSS | 81.6 | 4.98 |  |  |  | 
VHH antibody including the amino acid sequence represented by SEQ ID NO: 42 (VHH, also called anti-noro antibody; not shown: C-terminal 3xFlag tag and His tag from the modified pET22b(+) vector) VHH: ELQLVESGGGAVHTGGSLRLSCAVSGRTDIRYAMGWFRQAPGREREFVAAISWNGDDTFYADSVKGRFTISRDNAKNAVSLQMDSLRPEDTAVYYCNARNSYAAFARAYWGQGTQVTVSS | 63.8 | 13.1 |  |  |  | 
VHH antibody including the amino acid sequence represented by SEQ ID NO: 43 (VHH, also called anti-noro antibody; not shown: C-terminal 3xFlag tag and His tag from the modified pET22b(+) vector) VHH: QLQLVESGGGLVQPGGSLRLSCAASGFTLDYYAIGWFRQAPGNEREFVAAISWNGGSTYYADSVKGRFTISRDNAKETVYLQMNSLKPEDTGVYYCNYRPQFGLGYNYWGQGTQVTVSS | 5.45 | 10.3 |  |  |  | 
VHH antibody including the amino acid sequence represented by SEQ ID NO: 38 (VHH, Alpaca VHH expressed in E. coli; also called monomer antibody; not shown: C-terminal 3xFlag tag and His tag from the modified pET22b(+) vector) VHH: QVQLVESGGGVVQTGGSLRLSCAASGSTFSIGAMGWYRQAPGKQRELVATVNRASRTIYADSVRGRFTISRDNAKNLVYLQMNNLKPEDTAVYYCNVIATSASGRGVTSTSWGQGSQVTVSS |  | 4.15 | 149 | 0.0214 | 144000 | 1.15
VHH antibody including the amino acid sequence represented by SEQ ID NO: 39 (VHH, also called Monovalent 65; not shown: C-terminal 3xFlag tag and His tag from the modified pET22b(+) vector) VHH: QLQLVESGGGLVQAGGSLRLSCVASGFPFASSAMAWFRQAPGKEREFVASISYRGITTYYAQPVKGRFTMSRDNAKNTVYLQMNSLKPEDTAVYYCYAKSIWGNAYWGQGTQVTVSP |  | 15.9 | 54.8 |  |  | 15.8
VHH antibody including the amino acid sequence represented by SEQ ID NO: 40 (VHH, not shown: C-terminal 3xFlag tag and His tag from the modified pET22b(+) vector) VHH: QLQLVEPGGGVVQPGGSLRLSCLASGSDFSLGAMGWYRQAPGKQRELVAIINRASWTRYADSVKGRFTISRDNSKNLVFLQMNNLKPDDTAVYYCNAIATSASGRGVTSTSWGQGSQVTVSS |  | 9.57 |  |  |  | 9.5
dimer antibody having two of the structural domains each having the amino acid sequence represented by SEQ ID NO: 38 (SEQ ID NO: 97) (VHH, also called Divalent 97) QVQLVESGGGVVQTGGSLRLSCAASGSTFSIGAMGWYRQAPGKQRELVATVNRASRTIYADSVRGRFTISRDNAKNLVYLQMNNLKPEDTAVYYCNVIATSASGRGVTSTSWGQGSQVTVSSGGGGSGGGASGGGGSQVQLVESGGGVVQTGGSLRLSCAASGSTFSIGAMGWYRQAPGKQRELVATVNRASRTIYADSVRGRFTISRDNAKNLVYLQMNNLKPEDTAVYYCNVIATSASGRGVTSTSWGQGSQVTVSSEPKTPKPQSASAA |  |  | 0.13 | 0.000302 | 2.32e+06 | 
dimer antibody (SEQ ID NO: 98) in which the structure domain of SEQ ID NO: 38 and the structure domain of SEQ ID NO: 39 are connected from N to C via a linker (VHH, Single-chain tandem heterodimer of two VHH domains (38 then 39); also called Divalent 98) QVQLVESGGGVVQTGGSLRLSCAASGSTFSIGAMGWYRQAPGKQRELVATVNRASRTIYADSVRGRFTISRDNAKNLVYLQMNNLKPEDTAVYYCNVIATSASGRGVTSTSWGQGSQVTVSSGGGGSGGGASGGGGSQLQLVESGGGLVQAGGSLRLSCVASGFPFASSAMAWFRQAPGKEREFVASISYRGITTYYAQPVKGRFTMSRDNAKNTVYLQMNSLKPEDTAVYYCYAKSIWGNAYWGQGTQVTVSPEPKTPKPQSASAA |  |  | 0.485 | 0.00198 | 4.08e+06 | 
dimer antibody (SEQ ID NO: 99) in which the structure domain of SEQ ID NO: 39 and the structure domain of SEQ ID NO: 38 are connected from N to C via a linker (VHH, Single-chain tandem heterodimer of two VHH domains (39 then 38); also called Divalent 99) QLQLVESGGGLVQAGGSLRLSCVASGFPFASSAMAWFRQAPGKEREFVASISYRGITTYYAQPVKGRFTMSRDNAKNTVYLQMNSLKPEDTAVYYCYAKSIWGNAYWGQGTQVTVSPGGGGSGGGASGGGGSQVQLVESGGGVVQTGGSLRLSCAASGSTFSIGAMGWYRQAPGKQRELVATVNRASRTIYADSVRGRFTISRDNAKNLVYLQMNNLKPEDTAVYYCNVIATSASGRGVTSTSWGQGSQVTVSSEPKTPKPQSASAA |  |  | 0.00947 | 0.000356 | 3.75e+07 | 
